Assay results published in publication PMC12260418 (Proceedings of the National Academy of Sciences of the …, 2025).
Residue numbers refer to the chain shown, from its start. Where no end group is shown, it is not given here.

B1: biotinylated WT VGLL4 peptide (residues 202-259) (peptide)
peptide: ATTCDPVVEEHFRRSLGKNYKEPEPAPNSVSITGSVDDHFAKALGDTWLQIKAAKDGA
modifications: also: biotinylated, position not given here
B2: biotinylated VGLL4 peptide (residues 202-259), TDU1 mutant (peptide)
peptide: B1 peptide with H11A, F12A
modifications: also: biotinylated, position not given here
B3: Recombinant TEAD1 (S210-D426) (domain or fragment)
chain: SIGTTKLRLVEFSAFLEQQRDPDSYNKHLFVHIGHANHSYSDPLLESVDIRQIYDKFPEKKGGLKELFGKGPQNAFFLVKFWADLNCNIQDDAGAFYGVTSQYESSENMTVTCSTKVCSFGKQVVEKVETEYARFENGRFVYRINRSPMCEYMINFIHKLKHLPEKYMMNSVLENFTILLVVTNRDTQETLLCMACVFEVSNSEHGAQHHIYRLVKD

How the values were obtained:
[1] = biological target: TEAD1 (Homo sapiens, UniProt P28347); assay: SPR of recombinant TEAD1 and VGLL4 peptide with compound; type: binding
[2] = biological target: B3; assay: SPR
[3] = biological target: B1; assay: SPR
[4] = biological target: B1; assay: SPR; remark: listed apart in the source

GNE-7883
SPR of recombinant TEAD1 and VGLL4 peptide with compound; TEAD1 AP-MS in cells [1]: ~ 2 fold change in VGLL4-TEAD1 KD

B1
Kd [2]: ~500 nM

B2
binding result [2]: binds

B3
fold increase in affinity with VT-103 against DMSO [3]: ~12 fold | fold decrease of KD with GNE-7883 against DMSO [4]: ~2 fold
